Values of other authors, collected in publication PMC9776232.

Biological target: Amyloid beta (Homo sapiens) (UniProt P05067)
Sequence (P05067 672-711): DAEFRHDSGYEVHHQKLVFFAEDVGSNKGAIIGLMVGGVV

Chain of L-PGDS (P41222 23-190): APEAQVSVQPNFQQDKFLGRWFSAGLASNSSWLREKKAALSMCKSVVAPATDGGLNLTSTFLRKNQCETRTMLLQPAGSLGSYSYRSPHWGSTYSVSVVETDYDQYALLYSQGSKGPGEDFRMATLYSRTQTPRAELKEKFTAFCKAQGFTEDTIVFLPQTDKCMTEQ

- Kd: 34 nM
Substance: L-PGDS (from UniProt P41222)
